Patent US9631002B2, “Methods and compositions for producing active vitamin K-dependent proteins” (The University of North Carolina at Chapel Hill, priority 2010, dated 2017)
Entries after “also recorded” stand apart in the source; their conditions may differ.

Test system: carboxylation of FIXgla-PC reporter protein in HEK293 cells (reduction of KO to vitamin K)
Assay: Cell-based VKOR activity assay: recombinant VKOR/VKORH expressed in FIXgla-PC/HEK293 cells with KO and warfarin, carboxylated reporter by ELISA
Parameters: species or system human
Conditions: for ability to promote carboxylation of the reporter protein compared to recombinant human VKOR: FIXgla-PC HEK293 (FIGS. 9, 10); for sensitivity to warfarin: warfarin level used in these assays; for carboxylation of reporter protein by human VKOR cysteine mutants: Y139F background, HEK293 (FIG. 13); for amount of carboxylated reporter protein with mutated recombinant human VKOR: FIG. 12, compared to human VKOR Y139F; for activity in the in vivo assay: cysteine mutants of VKOR-Y139F, 4 μM warfarin (FIGS. 17A-B); for ability of human VKOR with replaced residues 122-139 to use KO to carboxylate the reporter: 48 h, HEK293 (FIG. 11C); for Relative activity: Human Y139F: VKOR of the organism compared to human Y139F VKOR, cell-based carboxylation

VKOR: human vitamin K epoxide reductase, AAS01052, SEQ ID NO:5
activity in cell-based in vivo activity assays: active in the vitamin K cycle

B1: VKORC1L1: the VKOR paralogue, four TMDs (protein, UniProt Q8N0U8 1-176, looked up)
Vitamin K epoxide reductase …: MAAPVLLRVSVPRWERVARYAVCAAGILLSIYAYHVEREKERDPEHRALCDLGPWVKCSAALASRWGRGFGLLGSIFGKDGVLNQPNSVFGLIFYILQLLLGMTASAVAALILMTSSIMSVVGSLYLAYILYFVLKEFCIICIVTYVLNFLLLIINYKRLVYLNEAWKRQLQPKQD
activity in cell-based in vivo activity assays: active in the vitamin K cycle

B2: MT-VKORH: Mycobacterium tuberculosis VKOR homologue, NP_217484, SEQ ID NO:18 (protein, listed as Mycobacterium tuberculosis)
chain: MVAARPAERSGDPAAVRVPVPSAWWVLIGGVIGLFASMTLTVEKVRILLDPIYVPSCNVNPIVSCGSVMTTPQASLLGFPNPLLGIAGFTVVVVTGVLAVAKVPLPRWYWIGLAVGILVGVAFVHWLIFQSLYRIGALCPYCMVVWAVIATLLVVVASIVFGPMRENRGSQERVGARLLYQWRWSLATLWFTTVFLLIMVRFWDYSTLI
ability to promote carboxylation of the reporter protein compared to recombinant human VKOR (5 μM KO, 2 μM warfarin): greater activity | support of carboxylation of the reporter protein with KO as substrate (5 μM KO, 4 μM warfarin, 48 h (FIG. 15B)): supported carboxylation of the reporter protein | sensitivity to warfarin: naturally resistant to warfarin | sensitivity to warfarin (listed as VKOR from Mycobacterium tuberculosis): resistant to warfarin at the doses employed

B3: C51A/Y139F: human VKOR with C51A and Y139F mutations (protein)
chain: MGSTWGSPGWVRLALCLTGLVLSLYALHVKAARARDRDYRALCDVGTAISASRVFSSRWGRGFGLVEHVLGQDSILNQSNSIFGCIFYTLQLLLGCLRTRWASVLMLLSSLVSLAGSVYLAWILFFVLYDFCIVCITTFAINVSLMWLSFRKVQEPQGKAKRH
modifications: Human VKOR with C51A mutation
notes: human VKOR with C51A and Y139F mutations
ability to promote carboxylation of the reporter protein compared to recombinant human VKOR (5 μM KO, 2 μM warfarin): greater activity | carboxylation of reporter protein by human VKOR cysteine mutants (4 μM warfarin): greater activity than VKORY139F | activity relative to human VKOR (Y139F) (both human forms carry Y139F, 5 μM KO, 2 μM warfarin): about 2 fold

B4: Y139W_IV133PY: human VKOR with residue 139 changed to W and IV at 133-134 changed to PY (protein, UniProt Q9BQB6 1-163, looked up, variant Y139W I133P V134Y)
Vitamin K epoxide reductase …: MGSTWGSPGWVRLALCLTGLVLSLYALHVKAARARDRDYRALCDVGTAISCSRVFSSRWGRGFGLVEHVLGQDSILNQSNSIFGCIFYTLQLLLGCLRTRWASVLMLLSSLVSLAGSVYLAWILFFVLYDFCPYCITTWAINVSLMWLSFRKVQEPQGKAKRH
amount of carboxylated reporter protein with mutated recombinant human VKOR: does not restore activity

B5: 5C-Mut: VKOR-Y139F with C16A, C43A, C51A, C85A and C96A simultaneously (protein, UniProt Q9BQB6 1-163, looked up, variant Y139F C16A C43A C51A C85A C96A)
Vitamin K epoxide reductase …: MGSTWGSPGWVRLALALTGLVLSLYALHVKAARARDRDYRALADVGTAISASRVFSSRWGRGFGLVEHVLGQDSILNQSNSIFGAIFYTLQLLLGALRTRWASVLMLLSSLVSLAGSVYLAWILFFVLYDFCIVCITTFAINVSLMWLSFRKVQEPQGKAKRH
carboxylation of reporter protein by human VKOR cysteine mutants (4 μM warfarin): indistinguishable from VKORY139F | activity in the in vivo assay (5 μM KO): ~40%

B6: C43/51A: VKOR-Y139F with double mutation C43A and C51A (protein, UniProt Q9BQB6 1-163, looked up, variant Y139F C43A C51A)
Vitamin K epoxide reductase …: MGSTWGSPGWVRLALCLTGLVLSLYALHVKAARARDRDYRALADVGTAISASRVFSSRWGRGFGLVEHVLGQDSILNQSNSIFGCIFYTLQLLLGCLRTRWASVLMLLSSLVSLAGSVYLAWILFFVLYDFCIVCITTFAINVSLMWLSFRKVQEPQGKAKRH
carboxylation of reporter protein by human VKOR cysteine mutants (4 μM warfarin): restores normal (VKORY139F) activity | activity in the in vivo assay (5 μM KO): ~60%

B7: Y139W: human VKOR with tyrosine 139 mutated to tryptophan (protein, UniProt Q9BQB6 1-163, looked up, variant Y139W)
Vitamin K epoxide reductase …: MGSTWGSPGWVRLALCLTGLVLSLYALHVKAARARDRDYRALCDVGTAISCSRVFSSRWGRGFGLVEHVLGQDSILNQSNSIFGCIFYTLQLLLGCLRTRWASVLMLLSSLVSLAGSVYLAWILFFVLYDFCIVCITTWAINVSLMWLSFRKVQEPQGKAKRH
amount of carboxylated reporter protein with mutated recombinant human VKOR: further reduction

B8: hVKOR Synechococcus: human VKOR with residues 122-139 replaced by Synechococcus VKOR 120-137, SEQ ID NO:31 (protein)
chain: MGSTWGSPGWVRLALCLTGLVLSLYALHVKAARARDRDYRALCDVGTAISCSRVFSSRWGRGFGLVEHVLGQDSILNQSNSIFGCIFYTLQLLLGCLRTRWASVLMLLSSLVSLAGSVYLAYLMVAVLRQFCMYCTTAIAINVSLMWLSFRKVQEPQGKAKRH
modifications: Human VKOR with amino acids 122-139 substituted with amino acids 120-137 of Synechococcus sp. JA-2-3B′a(2-13) VKOR (RefSeq accession no. YP_478481)
ability of human VKOR with replaced residues 122-139 to use KO to carboxylate the reporter (5 μM KO, 2 μM warfarin): only the human VKOR substituted with the M. tuberculosis domain functions as a VKOR

B9: Platypus: duck-billed platypus VKOR, SEQ ID NO:16, lacks cysteines corresponding to 43 and 51 (protein, listed as Ornithorhynchus anatinus)
chain: MGAWVPTRSARVVGPRALGSRVATAVQPSAVDPDTRHDRIPSLRWGRGFGLVEMVLGPDSSLNQPNSVFGLLFYSLQLLLGCSRAPWTSVVLALSSLLSLAGSLYLAWILFFVLHDFCFVCITTYAINVGLALLNYRRLKQAQGKVMKYCDESSPASSLLERRFYSGGGLRNGGSAASFPFPPATGH
ability to promote carboxylation of the reporter protein compared to recombinant human VKOR (5 μM KO, 2 μM warfarin): inactive | Relative activity: Human Y139F: No

B10: hVKOR Roseiflexus: human VKOR with residues 122-139 replaced by Roseiflexus VKOR 300-317, SEQ ID NO:33 (protein)
chain: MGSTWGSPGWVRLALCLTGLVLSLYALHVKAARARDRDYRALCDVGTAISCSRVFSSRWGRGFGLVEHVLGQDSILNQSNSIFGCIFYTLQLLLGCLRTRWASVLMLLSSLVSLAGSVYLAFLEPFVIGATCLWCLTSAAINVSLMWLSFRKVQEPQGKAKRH
modifications: Human VKOR with amino acids 122-139 substituted with amino acids 300-317 of Roseiflexus sp. RS-1 VKOR (RefSeq accession no. YP_001274867)
ability of human VKOR with replaced residues 122-139 to use KO to carboxylate the reporter (5 μM KO, 2 μM warfarin): only the human VKOR substituted with the M. tuberculosis domain functions as a VKOR

B11: Hamster: Syrian golden hamster (AV12) VKOR, SEQ ID NO:3, Y139F warfarin resistant (protein, listed as Cricetulus griseus)
chain: MGTTWRSPGRWRLALCLAGLALSLYALHVKAARARDEDYRALCDVGSAISCSRVFSSRWGKGLGLVEHVLGPDSVLNQNSIFGCIFYTIQLLLGCLRGRWAFLLLVLSSLVSFAGSVYLAWILFFVLYDFCIVCITTYVINVGLMLLNFQDVPEHKAKRH
ability to promote carboxylation of the reporter protein compared to recombinant human VKOR (5 μM KO, 2 μM warfarin): undiminished ability | Relative activity: Human Y139F: Yes, greater

B12: Nematostella: VKOR from Nematostella rendered warfarin resistant by Y135F mutation, SEQ ID NO:10 (protein, listed as Nematostella vectensis)
chain: MDKLGGFRMMLCVAGVFLSAYALNVEVSKSNNKDYRAICDISEKISCSKVFSSKYGTGFGLVEPIFGKDSTLNVPNSIFGIMFYTMVFLLGFSRSKLAAQLSVFSAVLSCLGSVYLGCILYFVLQDVCIICISTYVVNACLLVVNSLSLVNLQERTKRKQK
ability to promote carboxylation of the reporter protein compared to recombinant human VKOR (5 μM KO, 2 μM warfarin): consistently better; also recorded: considerably more active | ability to promote carboxylation of the reporter protein compared to recombinant human VKOR (5 μM KO, 2 μM warfarin, listed as Nematostella Y135F): greater ability to stimulate carboxylation | Relative activity: Human Y139F: Yes, greater

B13: Acropora: Acropora VKOR (translation of EZ012735, SEQ ID NO:9), Y136F warfarin resistant (protein, listed as Acropora millepora)
chain: MVSFLGISRLLVCLAGIALSIYALHVELSKAHDKDYKALCDINEHMSCSKVFTSKYGTGFGLVEPLLGKNHPFNVPNSIFGIIFYSLIIILGVVSGKFAALMMFLFSLASCVGSVYLGYILFYILHDTCVVCISTYVVNACLFVINMITLNDALSAPSPKKKKN
ability to promote carboxylation of the reporter protein compared to recombinant human VKOR (5 μM KO, 2 μM warfarin): also promotes carboxylation of the reporter protein | Relative activity: Human Y139F: Yes, greater

B14: C43-51-DEL: VKOR-Y139F with deletion of C43, C51 and the residues between them (protein, UniProt Q9BQB6 1-163, looked up, variant Y139F del43-51)
Vitamin K epoxide reductase …: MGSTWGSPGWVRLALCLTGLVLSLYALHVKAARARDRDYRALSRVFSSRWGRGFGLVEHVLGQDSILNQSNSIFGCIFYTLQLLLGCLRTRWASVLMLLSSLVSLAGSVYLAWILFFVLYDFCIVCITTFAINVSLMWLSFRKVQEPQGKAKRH
activity in the in vivo assay (5 μM KO): ~60%
